Test results reported in patent US20090068109A1 (Janssen / Centocor, published 2009).
Where a chain is given by its changes, count along the chain named. Blank lines part the entries; values can stand above or below the binder they belong to.

Key:
human MCP-1 (human) [1] = biological target: human MCP-1 (human) (UniProt P13500); assay: cell-based or functional assay
human MCP-1 (human) [2] = biological target: human MCP-1 (human) (UniProt P13500); assay: BioVeris (IGEN) solution equilibrium titration
human MCP-1 (human) [3] = biological target: human MCP-1 (human) (UniProt P13500); assay: inhibition of 125I-MCP-1 binding to THP-1 cells (CCR2)
human Eotaxin-2 = biological target: T1, human Eotaxin-2 (human, UniProt O00175 27-104, limits assumed); assay: Biacore, captured IgG
T1 sequence (looked up): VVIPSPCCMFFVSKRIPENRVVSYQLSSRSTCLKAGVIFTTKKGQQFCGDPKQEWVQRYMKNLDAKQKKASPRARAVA
Procedure: (§1) Specificity of Optimized Antibodies in Biacore Antibody Capture Mode (CNTO). Specificity evaluation was performed with selected IgGs. In Biacore 100 nM human MCP-1, human MCP-2, 3, 4 and human Eotaxin 1, 2 and 3 were added to captured optimized antibodies.

human Eotaxin-3 = biological target: T2, human Eotaxin-3 (human, UniProt Q9Y258 24-94); assay: Biacore, captured IgG
T2 sequence (looked up): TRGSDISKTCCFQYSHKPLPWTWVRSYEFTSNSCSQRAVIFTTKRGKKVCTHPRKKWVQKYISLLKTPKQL
Procedure: as §1

human MCP-2 [4] = biological target: T3, human MCP-2 (human, UniProt P80075 24-99); assay: Biacore, captured IgG
T3 construct: also called CCL8
T3 sequence (looked up): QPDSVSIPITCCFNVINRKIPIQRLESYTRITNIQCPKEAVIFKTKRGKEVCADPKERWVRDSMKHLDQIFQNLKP
Procedure: as §1

human MCP-3 = biological target: T4, human MCP-3 (human, UniProt P80098 24-99); assay: Biacore, captured IgG
T4 construct: also called CCL7
Procedure: as §1

human MCP-4 = biological target: T5, human MCP-4 (human, UniProt Q99616 24-98); assay: Biacore, captured IgG
T5 construct: also called CCL13
Procedure: as §1

human Eotaxin = biological target: T6, human Eotaxin (human, UniProt P51671 24-97); assay: BioVeris solution equilibrium titration
T6 construct: also called Eotaxin-1; Eotaxin 1
Procedure: Solution Equilibrium Titration (SET) Method for KD Determination and Cross-Reactivity Studies Using BioVeris. Affinity determination in solution was basically performed as described in the literature (Friguet et al., 1985). In order to improve the sensitivity and accuracy of the SET method, it was transferred from classical ELISA to ECL based BioVeris technology (Haenel et al., 2005, accepted for publication in Analytical Biochemistry). 1 mg/ml goat-anti-human (Fab)₂ or goat-anti-mouse IgG, Fc fragment specific antibodies (Jackson Immuno Research) were labelled with BV-tag™ NHS-Ester (Bioveris Europe, Witney, Oxfordshire, UK) according to manufacturer's instructions. The experiments were carried out in polypropylene microtiter plates and PBS pH 7.4 with 0.5% BSA and 0.02% Tween 20 as assay buffer. Unlabeled antigen was diluted in 4ⁿ series: For human and cyno MCP-1 a concentration range of 10 pM to 40 nM and for cross-reactivity controls (Eotaxin and MCP-2) a concentration range of 40 pM to 160 nM was chosen. Wells without antigen were used to determine Smax values. After addition of 100 pM Fab or IgG (final concentration in 75 μL final volume), the mixture was incubated for 2 hours at RT. Subsequently a mixture of 25 μl Dynabeads (0.4 mg/ml M-280 Streptavidin, DYNAL, Hamburg), coated with 0.25 μg/ml biotinylated MCP-1 (K69) and BV-tag labeled detection antibody in a final dilution of 1:4000 for anti-human Fab or 1:2000 for anti-mouse IgG were added per well. After incubation for 30 min on an Eppendorf shaker (700 rpm) at RT, electrochemiluminescence signals were detected using a M-384 SERIES® Workstation (Bioveris Europe) Data were evaluated with Origin 5.0 (Microcal) software applying customized fitting models (for Fab: Haenel et al., 2005, accepted for publication in Analytical Biochemistry; for IgG: according to Piehler et al., 1997).
Specificity Testing Using BioVeris. Beside the affinity also the specificity, especially the cross-reactivity to Eotaxin and MCP-2, was analyzed in solution equilibrium titration (SET) using BioVeris. No cross-reactivity to human MCP-2 was detectable for any of the selected 16 Fabs and 15 IgGs tested (one of the 16 selected IgGs was not available). As human MCP-1, human MCP-2 binds mainly to the CCR2 receptor, while human Eotaxin predominantly binds to the CCR3 receptor.

human MCP-1 [5] = biological target: T7, human MCP-1 (human, UniProt P13500 24-99); assay: Biacore, Fab
T7 construct: mature; also called hMCP-1; CCL2

cynomolgus monkey MCP-1 = biological target: T8, cynomolgus monkey MCP-1 (cynomolgus monkey, UniProt P61274 24-99); assay: Biacore, Fab
T8 construct: also called cyno MCP-1; cyno CCL-2

human MCP-2 [6] = biological target: T3, human MCP-2; assay: Biacore, captured Fab
Procedure: For the specificity analysis of Fabs, surface plasmone resonance was used (Biacore 3000, Uppsala, Sweden) using the capture assay was used. Fabs were captured and the various proteins (MCP-2, -3, -4 and Eotaxin-1, -2 and -3) were used as analytes. CM5 chips (Biacore, Sweden) were coated with 6500-8000 RU anti-F(ab)₂ (Dianova, Affipure F(ab)₂ fragment goat anti-human IgG, F(ab)₂ fragment specific; 10 mM acetate buffer, pH 4.5) on all 4 flow cells, using standard EDC-NHS amine coupling chemistry. The flow cells 2-4 were captured with specific anti-MCP-1 Fabs (20 μl of 500 nM Fab at a flow rate of […], resulted capture density 300-400RU). After capturing of Fabs, the chemokines were injected (20 μl, flow rate 20 μl/min, PBS pH 7.4) at a concentration of 100 nM. Chemokines were stored in small aliquots and only freshly thawed material with maximum 1 freeze thaw cycle was used for the measurements. To avoid a combination of off rates aroused by the off rate of MCP-1, Fab specific interaction and the anti-Fab/Fab interaction, buffer was injected, to determine the dissociation of anti-Fab/Fab interaction. The achieved buffer sensorgram was subtracted from the specific one. The response units were normalized to the amount of capture antibody onto the surface.

human MCP-1 [7] = biological target: T7, human MCP-1; assay: cell-based or functional assay
human MCP-1 [8] = biological target: T7, human MCP-1; assay: inhibition of 125I-MCP-1 binding to THP-1 cells (CCR2)

T7 sequence (P13500 24-99): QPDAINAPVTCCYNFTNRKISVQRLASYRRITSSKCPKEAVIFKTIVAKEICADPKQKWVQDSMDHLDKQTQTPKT
human MCP-1 (human), sequence (P13500 24-99): as above
T6 sequence (P51671 24-97 limits assumed): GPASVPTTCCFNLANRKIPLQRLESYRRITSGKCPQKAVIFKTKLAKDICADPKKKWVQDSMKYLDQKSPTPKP
T5 sequence (Q99616 24-98 limits assumed): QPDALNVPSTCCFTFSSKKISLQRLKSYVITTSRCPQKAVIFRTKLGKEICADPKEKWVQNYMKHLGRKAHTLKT
T4 sequence (P80098 24-99 limits assumed): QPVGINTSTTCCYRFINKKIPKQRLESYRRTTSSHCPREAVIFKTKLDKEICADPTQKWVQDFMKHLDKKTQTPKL
T8 sequence (P61274 24-99 limits assumed): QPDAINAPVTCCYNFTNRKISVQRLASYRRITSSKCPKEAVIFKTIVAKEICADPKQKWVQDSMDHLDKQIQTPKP

B1: C775 Fab (Fab, from another filing, V domains shown)
VH: QVQLKQSGAELVRPGASVKLSCKASGYTFTDYYINWVKQRPGQGLEWIARIYPGTGNTYYNENFKGKATLTAEKSSSTAYMQLSSLTSEDSAVYFCARSGSTVVGNYYGMDYWGQGTSVTVSS
VL: SIVMTQTPKFLLVSAGDRVSITCKASQSVSNDVAWYQQKPGQSPKLLIYYASNRYTGVPDRFTGSGYGTDFTFTISTVQAEDLAVYFCQQDYSSPWTFGGGTKLEIKR
Inhibition of Ca2+ Mobilization IC50 (human MCP-1 (human) [1]): 71.5 nM
Kd (human MCP-1 (human) [2]): 65 nM
IC50 (human MCP-1 (human) [3]): 35.6 nM

B2: C775 IgG (antibody, from another filing, V domains shown)
VH: B1 VH
VL: B1 VL
Inhibition of Ca2+ Mobilization IC50 (human MCP-1 (human) [1]): 62.3 nM
IC50 (human MCP-1 (human) [3]): 25.6 nM

B3: MOR03747 IgG1 (antibody, V domains shown)
VH: QVQLVESGGGLVQPGGSLRLSCAASGFTFRSYGMSWVRQAPGKGLEWVSNIRSDGSYTYYADSVKGRFTISRDNSKNTLYLQMNSLRAEDTAVYYCARFEFTPWTYFDFWGQGTLVTVSS
VL: DIELTQPPSVSVAPGQTARISCSGDNLGKKYVYWYQQKPGQAPVLVIYDDDNRPSGIPERFSGSNSGNTATLTISGTQAEDEADYYCQSYDRFSSTGFGGGTKLTVL
notes: Human IgG1 lambda
binding result (human Eotaxin-2): no binding (tested: 100 nM)
binding result (human Eotaxin-3): no binding (tested: 100 nM)
binding result (human MCP-2 [4]): no binding (tested: 100 nM)
binding result (human MCP-3): no binding (tested: 100 nM)
binding result (human MCP-4): no binding (tested: 100 nM)
binding result (human Eotaxin): no binding (tested: 40 pM to 160 nM)

B4: MOR03747 Fab (Fab, V domains shown)
VH: B3 VH
VL: B3 VL
notes: HuCAL Fab with C-terminal FLAG and 6xHis tags
binding result (human Eotaxin): no binding (tested: 40 pM to 160 nM)

B6: MOR03548 Fab (Fab, V domains shown)
VH: B3 VH
VL: B3 VL with D91T, R92A, F93Q, T96A, G97S
notes: Parental HuCAL GOLD Fab with C-terminal FLAG and 6xHis tags
Kd (human MCP-1 [5]): 42 nM
Kd (cynomolgus monkey MCP-1): 54 nM
binding result (human MCP-2 [6]): no binding (tested: 100 nM)
Ca2+ mobilization IC50 (human MCP-1 [7]): 124 nM
IC50 (human MCP-1 [8]): 11 nM

Other lines, results leading:

binding result (human Eotaxin-2): no binding (tested: 100 nM)
binding result (human Eotaxin-3): no binding (tested: 100 nM)
binding result (human MCP-2 [4]): no binding (tested: 100 nM)
binding result (human MCP-3): no binding (tested: 100 nM)
binding result (human MCP-4): no binding (tested: 100 nM)
binding result (human Eotaxin): no binding (tested: 40 pM to 160 nM)
B5: MOR03744 IgG1 (antibody, V domains shown)
VH: B3 VH
VL: B3 VL with S89T, G97A
notes: Human IgG1 lambda

binding result (human Eotaxin): no binding (tested: 40 pM to 160 nM)
B7: MOR03744 Fab (Fab, V domains shown)
VH: B3 VH
VL: B3 VL with S89T, G97A
notes: as for B4
